Target: rat VPAC1 receptor (rat) (UniProt P30083)
Assay: cell-based or functional assay

Sequence of rat VPAC1 receptor (rat) (P30083 31-459): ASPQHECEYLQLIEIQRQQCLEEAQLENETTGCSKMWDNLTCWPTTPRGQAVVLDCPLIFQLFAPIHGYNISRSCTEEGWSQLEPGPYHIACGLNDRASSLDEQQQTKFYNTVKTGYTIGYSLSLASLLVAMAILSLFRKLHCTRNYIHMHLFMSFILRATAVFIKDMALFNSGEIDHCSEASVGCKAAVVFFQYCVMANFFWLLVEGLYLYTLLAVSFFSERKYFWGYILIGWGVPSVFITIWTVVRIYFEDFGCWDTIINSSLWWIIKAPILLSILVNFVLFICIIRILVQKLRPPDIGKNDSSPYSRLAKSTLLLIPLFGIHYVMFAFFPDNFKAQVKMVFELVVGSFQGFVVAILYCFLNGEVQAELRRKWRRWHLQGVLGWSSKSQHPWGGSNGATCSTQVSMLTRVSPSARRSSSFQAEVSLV

EC50, cAMP generation (DiscoveRx) [nM]	Substance
0.07	pituitary adenylate cyclase-activating polypeptide PACAP-27
0.02	vasoactive intestinal peptide (VIP)
